Experimental findings from paper PMC10022506 (Journal of Agricultural and Food Chemistry, 2023) are described below.

One data set relates to C=O. In words: purified protein. Conditions: apparent, 100 mM pyruvate, 1 mM Mg2+, 50 mM CHES pH 9.0, 45 °C.
For a further data set, the target named is T1, EcYfaU (Escherichia coli, UniProt P76469).
T1 sequence (P76469 1-267): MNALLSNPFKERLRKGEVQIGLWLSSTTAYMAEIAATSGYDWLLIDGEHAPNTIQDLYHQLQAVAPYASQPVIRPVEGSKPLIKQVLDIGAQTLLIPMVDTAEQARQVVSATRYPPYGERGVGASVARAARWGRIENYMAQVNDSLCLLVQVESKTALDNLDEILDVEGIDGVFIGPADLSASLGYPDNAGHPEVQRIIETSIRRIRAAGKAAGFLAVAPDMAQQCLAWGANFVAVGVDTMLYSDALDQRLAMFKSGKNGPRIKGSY
In words: aldol condensation, HPLC. The following applies: co-substrate pyruvate; substrate inhibition at high concentration. The format is biochemical.

As usually defined, the Km is the concentration of substrate that gives half-maximal velocity. As a reminder, the kcat is the number of substrate molecules converted per active site and unit of time at saturation. Usually kcat/Km stands for the second-order rate constant that governs catalysis at low substrate concentration. For “PaADL (Pseudomonas aeruginosa; L241A/V121A)”, in the data set on C=O, the Km is 35 ± 4.4 mM, the kcat is 6.63 s⁻¹ and the kcat/Km is 183 M⁻¹ s⁻¹.
On the same counts, the results for PaADL (Pseudomonas aeruginosa; V121A) are 35 ± 4.9 mM, 5.8 s⁻¹ and 167 M⁻¹ s⁻¹.
Regarding `C=O` [formaldehyde], the “aldol condensation, HPLC” value at EcYfaU is “we measured the activity of EcYfaU at different substrate concentrations (Figure S7)”.
Consider PaADL (Pseudomonas aeruginosa; L241A), for which, in the data set on C=O, the Km was determined as 65 ± 5.9 mM, the kcat came to 7.2 s⁻¹ and the kcat/Km turned out to be 110 M⁻¹ s⁻¹.
